Where a chain is given by its changes, count along the chain named.
How the values were obtained:
NRF2;MAFG [1] = target: T1, NRF2;MAFG (human?;human?, UniProt Q16236;O15525 1-605;1-162, |); assay: protein binding microarray, anti-NRF2 detection
NRF2;MAFG [2] = target: T1, NRF2;MAFG; assay: protein binding microarray, anti-NRF2 detection; remark: listed apart in the source

B1: NQO1.ARE (dsDNA)
DNA 1: CCGCAGTCACAGTGACTCAGCAGAATCTGAGCCACCCAACCGCCCAACTT
DNA 2: AAGTTGGGCGGTTGGGTGGCTCAGATTCTGCTGAGTCACTGTGACTGCGG
modifications: 3' biotin on top strand; nick in top strand between nt 33 and 34
NRF2;MAFG [1]
  binding signal: 1 relative to NQO1.ARE

B2: 7A (dsDNA)
DNA 1: B1 DNA 1 with C18A
DNA 2: B1 DNA 2 with G33T
modifications: 3' biotin on top strand; nick in top strand between nt 33 and 34
NRF2;MAFG [2]
  binding result: binds

From paper PMC4770247
